Experimental data reported in patent publication US20240270846A1 (published 2024).
Changes are numbered by the printed parent chain. Numbers in names are those of the source.

B1: GLS3000 H27dY one-arm antibody (H chain CE115HA000) (antibody, human IgG1, kappa, L234A L235A, N297A, name in Kabat numbering)
heavy: QVQLVESGGGVVQPGRSLRLSCAASGFTFSNAWMHWVRQAPGKGLEWVAQIKAKSNNYATYYAESVKGRFTISRDDSKNSLYLQMNSLKTEDTAVYYCRYVHYGAYYGVDAWGQGTTVTVSSASTKGPSVFPLAPSSKSTSGGTAALGCLVKDYFPEPVTVSWNSGALTSGVHTFPAVLQSSGLYSLSSVVTVPSSSLGTQTYICNVNHKPSNTKVDKKVEPKSCDKTHTCPPCPAPEAAGGPSVFLFPPKPKDTLMISRTPEVTCVVVDVSHEDPEVKFNWYVDGVEVHNAKTKPREEQYASTYRVVSVLTVLHQDWLNGKEYKCKVSNKALPAPIEKTISKAKGQPREPQVYTLPPSRCELTKNQVSLSCAVKGFYPSDIAVEWESNGQPENNYKTTPPVLDSDGSFFLVSKLTVDKSRWQQGNVFSCSVMHEALHNHYTQKSLSLSPDYKDDDDK
chain: EPKSSDKTHTCPPCPAPELLGGPSVFLFPPKPKDTLMISRTPEVTCVVVDVSHEDPEVKFNWYVDGVEVHNAKTKPREEQYNSTYRVVSVLTVLHQDWLNGKEYKCKVSNKALPAPIEKTISKAKGQPREPQVCTLPPSRDELTKNQVSLWCLVKGFYPSDIAVEWESNGQPENNYKTTPPVLDSDGSFFLYSKLTVDKSRWQQGNVFSCSVMHEALHNRYTQKSLSLSP
light: DIVMTQSPLSLPVTPGEPASISCRSSQSLVYSNRNTYLHWYQQKPGQAPRLLIYKVSNRFSGVPDRFSGSGSGTDFTLKISRVEAEDVGVYYCGQGTQVPYTFGQGTKLEIKRTVAAPSVFIFPPSDEQLKSGTASVVCLLNNFYPREAKVQWKVDNALQSGNSQESVTEQDSKDSTYSLSSTLTLSKADYEKHKVYACEVTHQGLSSPVTKSFNRGEC
notes: one-arm antibody
B2: GLS3000 N28G one-arm antibody (H chain CE115HA000) (antibody, human IgG1, kappa, L234A L235A, N297A, name in Kabat numbering)
heavy: B1 heavy
chain: B1 chain
light: B1 light with Y31H, N33G
notes: one-arm antibody
B3: GLS3000 L27bP one-arm antibody (H chain CE115HA000) (antibody, human IgG1, kappa, L234A L235A, N297A, name in Kabat numbering)
heavy: B1 heavy
chain: B1 chain
light: B1 light with L29P, Y31H
notes: one-arm antibody
B4: GLS3000 N28A one-arm antibody (H chain CE115HA000) (antibody, human IgG1, kappa, L234A L235A, N297A, name in Kabat numbering)
heavy: B1 heavy
chain: B1 chain
light: B1 light with Y31H, N33A
notes: one-arm antibody
B5: GLS3000 L33D one-arm antibody (H chain CE115HA000) (antibody, human IgG1, kappa, L234A L235A, N297A, name in Kabat numbering)
heavy: B1 heavy
chain: B1 chain
light: B1 light with Y31H, L38D
notes: one-arm antibody
B6: GLS3000 N28D one-arm antibody (H chain CE115HA000) (antibody, human IgG1, kappa, L234A L235A, N297A, name in Kabat numbering)
heavy: B1 heavy
chain: B1 chain
light: B1 light with Y31H, N33D
notes: one-arm antibody
B7: GLS3000 L27bW one-arm antibody (H chain CE115HA000) (antibody, human IgG1, kappa, L234A L235A, N297A, name in Kabat numbering)
heavy: B1 heavy
chain: B1 chain
light: B1 light with L29W, Y31H
notes: one-arm antibody
B8: GLS3000 N28E one-arm antibody (H chain CE115HA000) (antibody, human IgG1, kappa, L234A L235A, N297A, name in Kabat numbering)
heavy: B1 heavy
chain: B1 chain
light: B1 light with Y31H, N33E
notes: one-arm antibody
B9: GLS3000 N28F one-arm antibody (H chain CE115HA000) (antibody, human IgG1, kappa, L234A L235A, N297A, name in Kabat numbering)
heavy: B1 heavy
chain: B1 chain
light: B1 light with Y31H, N33F
notes: one-arm antibody
B10: GLS3000 K50D one-arm antibody (H chain CE115HA000) (antibody, human IgG1, kappa, L234A L235A, N297A, name in Kabat numbering)
heavy: B1 heavy
chain: B1 chain
light: B1 light with Y31H, K55D
notes: one-arm antibody
B11: GLS3000 L33A one-arm antibody (H chain CE115HA000) (antibody, human IgG1, kappa, L234A L235A, N297A, name in Kabat numbering)
heavy: B1 heavy
chain: B1 chain
light: B1 light with Y31H, L38A
notes: one-arm antibody
B12: GLS3000 L27bF one-arm antibody (H chain CE115HA000) (antibody, human IgG1, kappa, L234A L235A, N297A, name in Kabat numbering)
heavy: B1 heavy
chain: B1 chain
light: B1 light with L29F, Y31H
notes: one-arm antibody
B13: GLS3000 K50A one-arm antibody (H chain CE115HA000) (antibody, human IgG1, kappa, L234A L235A, N297A, name in Kabat numbering)
heavy: B1 heavy
chain: B1 chain
light: B1 light with Y31H, K55A
notes: one-arm antibody
B14: GLS3000 H34A one-arm antibody (H chain CE115HA000) (antibody, human IgG1, kappa, L234A L235A, N297A, name in Kabat numbering)
heavy: B1 heavy
chain: B1 chain
light: B1 light with Y31H, H39A
notes: one-arm antibody
B15: GLS3000 L27bD one-arm antibody (H chain CE115HA000) (antibody, human IgG1, kappa, L234A L235A, N297A, name in Kabat numbering)
heavy: B1 heavy
chain: B1 chain
light: B1 light with L29D, Y31H
notes: one-arm antibody
B16: GLS3000 L27bY one-arm antibody (H chain CE115HA000) (antibody, human IgG1, kappa, L234A L235A, N297A, name in Kabat numbering)
heavy: B1 heavy
chain: B1 chain
light: B1 light with L29Y, Y31H
notes: one-arm antibody
B17: GLS3000 L27bE one-arm antibody (H chain CE115HA000) (antibody, human IgG1, kappa, L234A L235A, N297A, name in Kabat numbering)
heavy: B1 heavy
chain: B1 chain
light: B1 light with L29E, Y31H
notes: one-arm antibody
B18: GLS3000 L27bI one-arm antibody (H chain CE115HA000) (antibody, human IgG1, kappa, L234A L235A, N297A, name in Kabat numbering)
heavy: B1 heavy
chain: B1 chain
light: B1 light with L29I, Y31H
notes: one-arm antibody
B19: GLS3000 L27bS one-arm antibody (H chain CE115HA000) (antibody, human IgG1, kappa, L234A L235A, N297A, name in Kabat numbering)
heavy: B1 heavy
chain: B1 chain
light: B1 light with L29S, Y31H
notes: one-arm antibody
B20: GLS3000 H34D one-arm antibody (H chain CE115HA000) (antibody, human IgG1, kappa, L234A L235A, N297A, name in Kabat numbering)
heavy: B1 heavy
chain: B1 chain
light: B1 light with Y31H, H39D
notes: one-arm antibody
B21: GLS3000 L27bV one-arm antibody (H chain CE115HA000) (antibody, human IgG1, kappa, L234A L235A, N297A, name in Kabat numbering)
heavy: B1 heavy
chain: B1 chain
light: B1 light with L29V, Y31H
notes: one-arm antibody
B22: GLS3000 L27bM one-arm antibody (H chain CE115HA000) (antibody, human IgG1, kappa, L234A L235A, N297A, name in Kabat numbering)
heavy: B1 heavy
chain: B1 chain
light: B1 light with L29M, Y31H
notes: one-arm antibody

What follows are binders tested against T1, CD3 epsilon homodimer protein (UniProt P07766 23-126) (assay: SPR, CD3e homodimer on chip;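 also: surface plasmon resonance at 25 degrees C, antibodies flowed as analyte over CD3 epsilon homodimer amine-coupled to a CM4 chip, running buffer HBS-EP+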).
T1 construct: also called CD3 (CD3 epsilon)
T1 sequence (P07766 23-126): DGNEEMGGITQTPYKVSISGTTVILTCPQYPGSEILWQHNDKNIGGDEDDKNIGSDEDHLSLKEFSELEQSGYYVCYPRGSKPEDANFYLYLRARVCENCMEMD

Row | ratio of amounts bound (altered form / unaltered GLS3000 antibody) | Binder
1 | 0.64 | B1
2 | 0.46 | B2
3 | 0.91 | B3
4 | 0.25 | B4
5 | 0.17 | B5
6 | 0.19 | B6
7 | 0.26 | B7
8 | 0.4 | B8
9 | 0.46 | B9
10 | 0.22 | B10
11 | 0.85 | B11
12 | 0.42 | B12
13 | 0.23 | B13
14 | 1.06 | B14
15 | 0.17 | B15
16 | 0.25 | B16
17 | 0.17 | B17
18 | 1.19 | B18
19 | 0.71 | B19
20 | 0.22 | B20
21 | 1.12 | B21
22 | 0.71 | B22
